# Source: patent US20140348865A1, “[…] ON AN HIV-1 V1V2 SITE-OF-VULNERABILITY” (The United States of America, as represented by the …, priority 2011, published 2014)
# Key:
# [1] = biological target: Env of HIV-1 strain 398 (pseudovirus) (HIV-1)
# [2] = biological target: Env of HIV-1 strain 0439 (pseudovirus) (HIV-1)
# SVA.MLV [3] = biological target: SVA.MLV
# [4] = biological target: Env of HIV-1 strain 6405 (pseudovirus) (HIV-1)
# [5] = biological target: Env of HIV-1 strain X2088 (pseudovirus) (HIV-1)
# [6] = biological target: Env of HIV-1 strain A03349M1 (pseudovirus) (HIV-1)
# SVA.MLV [7] = biological target: SVA.MLV; remark: listed apart in the source
# [8] = biological target: Env of HIV-1 strain X2088 (pseudovirus) (HIV-1); remark: listed apart in the source
# 1FD6-CAP45 V1V2 scaffold = test: ELISA, supernatant on His grab plates
# [9] = biological target: 1FD6 CAP45 scaffold N160Q; test: ELISA, supernatant on His grab plates
# [10] = biological target: 1FD6 CAP45 scaffold N192D; test: ELISA, supernatant on His grab plates
# [11] = biological target: 1FD6 CAP45 scaffold N143D; test: ELISA, supernatant on His grab plates
# [12] = biological target: 1FD6 CAP45 scaffold N147D; test: ELISA, supernatant on His grab plates
# [13] = biological target: 1FD6 CAP45 scaffold N156D; test: ELISA, supernatant on His grab plates
substance,measurement,setting,value
monoclonal antibody PG16,neutralization IC80,[1],> 50 µg/mL
same,neutralization IC80,BB201.B42 (HIV-1),0.008 µg/mL
same,neutralization IC80,BS208.B1 (HIV-1),0.012 µg/mL
same,neutralization IC80,R3265.c6 (HIV-1),0.691 µg/mL
same,neutralization IC80,Q461.e2 (HIV-1),> 50 µg/mL
same,neutralization IC80,[2],> 50 µg/mL
same,neutralization IC80,C2101.c1 (HIV-1),0.069 µg/mL
same,neutralization IC80,620345.c1 (HIV-1),> 50 µg/mL
same,neutralization IC80,TH966.8 (HIV-1),0.03 µg/mL
same,neutralization IC80,3301_V1_C24 (HIV-1),0.397 µg/mL
same,neutralization IC80,3415.v1.c1 (HIV-1),0.342 µg/mL
same,neutralization IC80,Q168.a2 (HIV-1),0.106 µg/mL
same,neutralization IC80,KER2018.11 (HIV-1),0.002 µg/mL
same,neutralization IC80,C4118.09 (HIV-1),0.24 µg/mL
same,neutralization IC80,MS208.A1 (HIV-1),31.8 µg/mL
same,neutralization IC80,R1166.c1 (HIV-1),12.5 µg/mL
same,neutralization IC80,MB201.A1 (HIV-1),0.019 µg/mL
same,neutralization IC80,CNE3 (HIV-1),> 50 µg/mL
same,neutralization IC80,TH976.17 (HIV-1),> 50 µg/mL
same,neutralization IC80,6095_V1_C10 (HIV-1),0.443 µg/mL
same,neutralization IC80,MB539.2B7 (HIV-1),0.205 µg/mL
same,neutralization IC80,3718.v3.c11 (HIV-1),0.102 µg/mL
same,neutralization IC80,6545_V4_C1 (HIV-1),0.562 µg/mL
same,neutralization IC80,R2184.c4 (HIV-1),> 50 µg/mL
same,neutralization IC80,0815_V3_C3 (HIV-1),> 50 µg/mL
same,neutralization IC80,3589_V1_C4 (HIV-1),37.8 µg/mL
same,neutralization IC80,KER2008.12 (HIV-1),0.046 µg/mL
same,neutralization IC80,0330.v4.c3 (HIV-1),0.027 µg/mL
same,neutralization IC80,UG037.8 (HIV-1),0.004 µg/mL
same,neutralization IC80,C1080.c3 (HIV-1),0.004 µg/mL
same,neutralization IC80,RW020.2 (HIV-1),3.51 µg/mL
same,neutralization IC50,ZM55.28a,> 50 µg/mL
same,neutralization IC50,ZM233.6,< 0.023 µg/mL
same,neutralization IC50,SVA.MLV [3],> 50 µg/mL
same,neutralization IC50,3016.v5.c45,> 50 µg/mL
same,neutralization IC50,ZM197.7,0.65 µg/mL
same,neutralization IC50,ZM215.8,> 50 µg/mL
same,neutralization IC50,57128.vrc15,0.162 µg/mL
same,neutralization IC50,[4],> 50 µg/mL
same,neutralization IC50,UG021.16,> 50 µg/mL
same,neutralization IC50,ZM53.12,< 0.023 µg/mL
same,neutralization IC50,3337.V2.C6,> 50 µg/mL
same,neutralization IC50,[5],> 50 µg/mL
same,neutralization IC50,[6],> 50 µg/mL
same,neutralization IC50,UG024.2,> 50 µg/mL
same,neutralization IC50,ZM214.15,> 50 µg/mL
same,neutralization IC50,SIVmac251.30.SG3,> 50 µg/mL
same,neutralization IC50,3817.v2.c59,0.006 µg/mL
same,neutralization IC50,NKU3006.ec1,> 50 µg/mL
same,neutralization IC50,3326.V4.C3,< 0.023 µg/mL
same,neutralization IC50,231965.c1,4.72 µg/mL
same,neutralization IC50,ZM249.1,0.073 µg/mL
same,neutralization IC80,SVA.MLV [7],> 50 µg/mL
same,neutralization IC80,UG021.16 (HIV-1),> 50 µg/mL
same,neutralization IC80,ZM233.6 (HIV-1),< 0.023 µg/mL
same,neutralization IC80,[8],> 50 µg/mL
same,neutralization IC80,3016.v5.c45 (HIV-1),> 50 µg/mL
same,EC50,1FD6-CAP45 V1V2 scaffold,9.1 µg/mL
same,EC50,[9],> 50 µg/mL
same,EC50,[10],27 µg/mL
same,EC50,[11],3.3 µg/mL
same,EC50,[12],0.7 µg/mL
same,EC50,[13],> 50 µg/mL
monoclonal antibody PG9,neutralization IC80,[1],> 50 µg/mL
same,neutralization IC80,BB201.B42 (HIV-1),0.046 µg/mL
same,neutralization IC80,BS208.B1 (HIV-1),0.098 µg/mL
same,neutralization IC80,R3265.c6 (HIV-1),9.8 µg/mL
same,neutralization IC80,Q461.e2 (HIV-1),29.9 µg/mL
same,neutralization IC80,[2],> 50 µg/mL
same,neutralization IC80,C2101.c1 (HIV-1),0.289 µg/mL
same,neutralization IC80,620345.c1 (HIV-1),> 50 µg/mL
same,neutralization IC80,TH966.8 (HIV-1),0.183 µg/mL
same,neutralization IC80,3301_V1_C24 (HIV-1),1.51 µg/mL
same,neutralization IC80,3415.v1.c1 (HIV-1),0.77 µg/mL
same,neutralization IC80,Q168.a2 (HIV-1),0.342 µg/mL
same,neutralization IC80,KER2018.11 (HIV-1),0.004 µg/mL
same,neutralization IC80,C4118.09 (HIV-1),0.205 µg/mL
same,neutralization IC80,MS208.A1 (HIV-1),0.589 µg/mL
same,neutralization IC80,R1166.c1 (HIV-1),9.24 µg/mL
same,neutralization IC80,MB201.A1 (HIV-1),0.193 µg/mL
same,neutralization IC80,CNE3 (HIV-1),1.12 µg/mL
same,neutralization IC80,TH976.17 (HIV-1),> 50 µg/mL
same,neutralization IC80,6095_V1_C10 (HIV-1),2.25 µg/mL
same,neutralization IC80,MB539.2B7 (HIV-1),0.383 µg/mL
same,neutralization IC80,3718.v3.c11 (HIV-1),0.202 µg/mL
same,neutralization IC80,6545_V4_C1 (HIV-1),0.315 µg/mL
same,neutralization IC80,R2184.c4 (HIV-1),1.75 µg/mL
same,neutralization IC80,0815_V3_C3 (HIV-1),> 50 µg/mL
same,neutralization IC80,3589_V1_C4 (HIV-1),0.102 µg/mL
same,neutralization IC80,KER2008.12 (HIV-1),0.085 µg/mL
same,neutralization IC80,0330.v4.c3 (HIV-1),0.083 µg/mL
same,neutralization IC80,UG037.8 (HIV-1),0.085 µg/mL
same,neutralization IC80,C1080.c3 (HIV-1),0.011 µg/mL
same,neutralization IC80,RW020.2 (HIV-1),0.622 µg/mL
same,neutralization IC50,ZM55.28a,0.571 µg/mL
same,neutralization IC50,ZM233.6,< 0.023 µg/mL
same,neutralization IC50,SVA.MLV [3],> 50 µg/mL
same,neutralization IC50,3016.v5.c45,0.286 µg/mL
same,neutralization IC50,ZM197.7,0.414 µg/mL
same,neutralization IC50,ZM215.8,< 0.023 µg/mL
same,neutralization IC50,57128.vrc15,0.104 µg/mL
same,neutralization IC50,[4],> 50 µg/mL
same,neutralization IC50,UG021.16,> 50 µg/mL
same,neutralization IC50,ZM53.12,0.041 µg/mL
same,neutralization IC50,3337.V2.C6,> 50 µg/mL
same,neutralization IC50,[5],> 50 µg/mL
same,neutralization IC50,[6],> 50 µg/mL
same,neutralization IC50,UG024.2,3.94 µg/mL
same,neutralization IC50,ZM214.15,> 50 µg/mL
same,neutralization IC50,SIVmac251.30.SG3,> 50 µg/mL
same,neutralization IC50,3817.v2.c59,0.007 µg/mL
same,neutralization IC50,NKU3006.ec1,> 50 µg/mL
same,neutralization IC50,3326.V4.C3,< 0.023 µg/mL
same,neutralization IC50,231965.c1,1.51 µg/mL
same,neutralization IC50,ZM249.1,0.033 µg/mL
same,neutralization IC80,SVA.MLV [7],> 50 µg/mL
same,neutralization IC80,UG021.16 (HIV-1),> 50 µg/mL
same,neutralization IC80,ZM233.6 (HIV-1),< 0.023 µg/mL
same,neutralization IC80,[8],> 50 µg/mL
same,neutralization IC80,3016.v5.c45 (HIV-1),> 50 µg/mL
same,EC50,1FD6-CAP45 V1V2 scaffold,0.2 µg/mL
same,EC50,[9],> 50 µg/mL
same,EC50,[10],0.2 µg/mL
same,EC50,[11],0.1 µg/mL
same,EC50,[12],0.1 µg/mL
same,EC50,[13],4.9 µg/mL
